Measurements published in US20230220399.
Where two headings read alike, the source gives them in different places.

Experiments:
Settings in all cases: ELISA, SB18, 37 C
[1] = target: human serum albumin (HSA) (Homo sapiens) (UniProt P02768)
[2] = target: 4-1BB (TNFRSF9) (Homo sapiens) (UniProt Q07011)
[3] = target: PD-L1 (B7-H1) (Homo sapiens) (UniProt Q9NZQ7)
KRAS G12D G12D, P01116-2 = system: KRAS G12D G12D, P01116-2
[4] = Nap-dU at n (6) positions [5,10,11,12,18,20,22,24]
[5] = Nap-dU at n (6) positions [5,10,11,12,18,20,22,24,32]
[6] = Nap-dU at n (6) positions [Nap-dU at 24,31,33,36,39,40,43,52]
[7] = Nap-dU at n (6) positions [5,11,13,19,21,23,28]
[8] = Nap-dU at n (6) positions [5,11,13,19,21,23,28,36,38]
[9] = Nap-dU at n (6) positions [5,11,13,19,21,23,28,36,38,42-44]
[10] = Nap-dU at n (6) positions [5,11,13,19,21,23,28,36,38,42,43,44,45]
[11] = Nap-dU at n (6) positions [5,11,13,19,21,23,28,36,38,42-45,52,54]
[12] = Nap-dU at n (6) positions [5,11,13,19,21,23,28,36,37,39,44,45,50,52,54]
[13] = Nap-dU at n (6) positions [8,10-11,13,18-19,24,26,29]
[14] = Nap-dU at n (6) positions [8,10-11,13,18-19,24,26,29,36,39]
[15] = Nap-dU at n (6) positions [3,5-6,8,13-14,19,21,24]
[16] = Nap-dU at n (6) positions [5,7,9,14,22,24,28,29,30,31,38,40]
[17] = Nap-dU at n (6) positions [2,4,10,12,14,19,27,29,33,34,35,36,43,45]
[18] = Nap-dU at n (6) positions [4,9,13,19,26,27,28,30]
[19] = Nap-dU at n (6) positions [Nap-dU at 29,36,38,41,44,45,48,57]
[20] = Nap-dU at n (6) positions [16,25,27-28,30,35-36,41,43,46,53,56]
[21] = Nap-dU at n (6) positions [12,21,26,30,36,43,44,45,47,56]

PD-L1 (B7-H1) (Homo sapiens), sequence (Q9NZQ7 19-238): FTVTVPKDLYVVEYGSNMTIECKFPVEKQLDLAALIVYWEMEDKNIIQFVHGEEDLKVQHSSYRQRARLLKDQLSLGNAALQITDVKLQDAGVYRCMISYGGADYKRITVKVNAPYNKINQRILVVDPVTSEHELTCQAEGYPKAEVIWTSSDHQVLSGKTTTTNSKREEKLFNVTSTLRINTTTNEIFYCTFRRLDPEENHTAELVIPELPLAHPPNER
4-1BB (TNFRSF9) (Homo sapiens), sequence (Q07011 24-186): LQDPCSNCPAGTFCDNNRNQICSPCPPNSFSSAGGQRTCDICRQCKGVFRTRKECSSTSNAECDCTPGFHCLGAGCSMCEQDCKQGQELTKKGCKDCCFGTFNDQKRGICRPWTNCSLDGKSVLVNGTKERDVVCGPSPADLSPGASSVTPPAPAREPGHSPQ

## AACCTCGCCTTTACAACTATATCTGACGAAC [AB005]
[1]; [4]
  Kd: 53.5 nM
[2]; [4]
  Kd: 0.12 nM

## AACCTCGCCTTTACAACTATATCTGACGAACTAACA [AB004]
[1]; [5]
  Kd: 102 nM
[2]; [5]
  Kd: 0.05 nM

## ACCGTCTGCCTGACAACAACGAGTGCGAACTGTACTACTTGATAGAGACCCTCAGCCACACCACCAGCC [AP021]
[3]; [6]
  Kd: 130 nM
[1]; [6]
  Kd: 15.6 nM

## CAGGTCGAGCTGTACGCGTGTGTGACCTGAAGAC [AD043]
KRAS G12D G12D, P01116-2; [7]
  Kd: 263 nM
[1]; [7]
  Kd: 4.18 nM

## CAGGTCGAGCTGTACGCGTGTGTGACCTGAAGACGTATA [AD044]
KRAS G12D G12D, P01116-2; [8]
  Kd: 1580 nM
[1]; [8]
  Kd: 2.93 nM

## CAGGTCGAGCTGTACGCGTGTGTGACCTGAAGACGTATAACTTT [AD045]
KRAS G12D G12D, P01116-2; [9]
  Kd: 20 nM
[1]; [9]
  Kd: 0.73 nM

## CAGGTCGAGCTGTACGCGTGTGTGACCTGAAGACGTATAACTTTTACAG [AD046]
KRAS G12D G12D, P01116-2; [10]
  Kd: 5.38 nM
[1]; [10]
  Kd: 0.65 nM

## CAGGTCGAGCTGTACGCGTGTGTGACCTGAAGACGTATAACTTTTACAGAATCTACA [AD032]
KRAS G12D G12D, P01116-2; [11]
  Kd: 15.5 nM
[1]; [11]
  Kd: 0.68 nM

## CAGGTCGAGCTGTACGCGTGTGTGACCTGCCCCACTTCTGACATTAGACTGTGTAGA [AD034]
KRAS G12D G12D, P01116-2; [12]
  Kd: 473 nM
[1]; [12]
  Kd: 0.59 nM

## CCCCGCCTCTTCTGAAGTTAACATGTGCTCC [AD014]
KRAS G12D G12D, P01116-2; [13]
  Kd: 1.95 nM
[1]; [13]
  Kd: 28.8 nM

## CCCCGCCTCTTCTGAAGTTAACATGTGCTCCGAGA [AD012]
KRAS G12D G12D, P01116-2; [13]
  Kd: 23.1 nM
[1]; [13]
  Kd: 28.7 nM

## CCCCGCCTCTTCTGAAGTTAACATGTGCTCCGAGATGGTA [AD011]
KRAS G12D G12D, P01116-2; [14]
  Kd: 9.46 nM
[1]; [14]
  Kd: 5.46 nM

## CCTCTTCTGAAGTTAACATGTGCTCC [AD015]
[1]; [15]
  Kd: 36.8 nM

## CCTCTTCTGAAGTTAACATGTGCTCCGAGA [AD013]
KRAS G12D G12D, P01116-2; [15]
  Kd: 3.99 nM
[1]; [15]
  Kd: 47 nM

## CGCGTGTGTGACCTGAAGACGTATAACTTTTACAGAATCTACA [AD051]
KRAS G12D G12D, P01116-2; [16]
  Kd: 514 nM
[1]; [16]
  Kd: 5.95 nM

## CTGTACGCGTGTGTGACCTGAAGACGTATAACTTTTACAGAATCTACA [AD052]
KRAS G12D G12D, P01116-2; [17]
  Kd: 4.93 nM
[1]; [17]
  Kd: 3.06 nM

## GACTAGCATAAGTCCGGATGGCAGCTTTATGCCG [AD006]
KRAS G12D G12D, P01116-2; [18]
  Kd: 77.6 nM
[1]; [18]
  Kd: 939 nM

## GAGTGACCGTCTGCCTGACAACAACGAGTGCGAACTGTACTACTTGATAGAGACCCTC [AP023]
[3]; [19]
  Kd: 93.2 nM
[1]; [19]
  Kd: 51.7 nM

## GAGTGACCGTCTGCCTGACAACAACGAGTGCGAACTGTACTACTTGATAGAGACCCTCAGCCACACCACCAGCC [AP013]
[3]; [19]
  Kd: 74 nM
[1]; [19]
  Kd: 19.1 nM

## GAGTGACCGTCTGCCTGCCCCGCCTCTTCTGAAGTTAACATGTGCTCCGAGATGGTACAGCCACACCACCAGCC [AD009]
KRAS G12D G12D, P01116-2; [20]
  Kd: 0.51 nM
[1]; [20]
  Kd: 0.65 nM

## GAGTGACCGTCTGCCTGGACTAGCATAAGTCCGGATGGCAGCTTTATGCCGACCATCAGCCACACCACCAGCC [AD003]
KRAS G12D G12D, P01116-2; [21]
  Kd: 13.8 nM
[1]; [21]
  Kd: 13 nM

## GAGTGACCGTCTGCCTGGATATGCCTCTTCTGCAGTTACGGTGTGATCGCCCAATAGCAGCCACACCACCAGCC [TD009]
KRAS G12D G12D, P01116-2; Nap-dU at n (6) positions [Nap-dU at 20,22,26,28,29,31,36,37,42,44,47,55]
  Kd: 2480 nM
